{"source": "patent US20230382991A1", "key": {"[1]": {"molecular_target": "cynomolgus macaque LILRB1.2 expressed on stably transduced HEK293T cells (cynomolgus macaque)"}, "[2]": {"molecular_target": "cynomolgus macaque LILRB2.1 expressed on stably transduced HEK293T cells (cynomolgus macaque)"}, "[3]": {"molecular_target": "cynomolgus macaque LILRB4 expressed on stably transduced HEK293T cells (cynomolgus macaque)"}}, "note": "Where “and” joins values, the source holds several entries; their conditions need not be identical. Equal values may be shown once."}
{"substance": "cynomolgus macaque Mafa-A1*063 SIV gag GW9 (…)-APC tetramer (peptide-MHC)", "values": [{"measurement": "% cells in the tetramer+ gate", "setting": "[1]", "value": "51.7% and 53%"}, {"measurement": "% cells in the tetramer+ gate", "setting": "[2]", "value": "73.5% and 71%"}, {"measurement": "% cells in the tetramer+ gate", "setting": "[3]", "value": 0.13, "unit": "%"}]}
